Measurements: paper doi:10.1101/2022.07.07.499247
Read-outs that look alike come from different tables or passages of the source.

Experiments:
[1] = target: recombinant alpha tubulin of Plasmodium falciparum (Plasmodium falciparum); assay: MST
[2] = target: recombinant alpha tubulin of Plasmodium falciparum (Plasmodium falciparum); assay: MST; remark: listed apart in the source

B1: recombinant Plasmodium falciparum cold shock protein PfCoSP (PF3D7_0109600) (natural protein)
chain: MLRRKIHIHFNSYKKHFFSQLINKEKHDKITGNVIMFDKRKGYGFIKPNDGGPDIFVHYTDICQSRTFEVTNEEKKKLAWNANMDITQKKEEYNFEYDNNNNNNNNKHNKKKEEIKKEFKYLVPGERVKFSVIYDEKSNSSKAINVDYID
Kd [1]: 274 nM
Kd [2]: 210 nM
